According to a protein production outcome set (Wang et al. 2014):

Experiment: label from the status in PepcDB records
For “MRLIVVGIAEDITEKKQLETELQRLATTDVLTQSSNRRHFFECANREFEQARLQGSSLAFLLLDIDDFKVINDTYGHPEGDIVLQRIAESGRAALRRGDLFGRIGGEEFAAVFPGCTADMARQVAERLQREIQRQNFSHQGQTFTITVSQGLTGLLAEDESLDNLFARADSAMYEAKRQGKNRIITGLEHHHHHH”, the protein production was “failed”.
For “MRLKKQLLGSLLVVIVVLSIAVATTKQQKGFVTGQPTGALNLSDILDSEELGEYHLMSAAIITGNTVDFSGLGAGPDDPFEIASITKIFTGELLRLQIERGEITESTAVGDVLGERVADSLIRDITVEELANHTSGLPRLGNVGLRPFMATFFDKNPYKDLSADRVISISTTSKLNSRGEFHYSNLGFALLGQVLARNAGLTFDQLLDRDLLAPLNLNNTKLMTPESLAQDAPQGFSTPGKQVEAWEMDGFLPAAGLRSTARDMAVFCQYLFTKGPAPFTWQSLESAPEIVWHNGESFGYSSVLFFNTATTTAIFVAADVATSVFPIGHELLMANSTRQESK”, the protein production was “failed”.
With “MRLLIAGRLFFGLGLALWALGAGPSPARAAGMSLIRDAEIENTIAMIATPLLRAASIGDRAITFRLINDDTINAFATTEMRVFVYTGLFLKTEGPDELKGVIAHEMGHLAGGHLLRMKDEMANASMTALVGMLAGAAAGIASGRGDVGSAVMMGTNQAAMRGFLTFSRTQESSADSFAMRMLDATGQSAAGMLKFFRKLGDQEALITASQDPYVRTHPLTRDRITAVADHVAHSRFSDVPPSPAEVLAYQRAKAKLMAFLKSTGATLAAYPATDRSVAARYARAIAYYRAGDLGRALPLIDGLIAEDPNDPYFEELRGQMLFENQRLREALGSYTKAARLAPTEPLILVSLAHVQVELGDRPLLENALTNLNAALGLDPTNSFAWRQMANASGKLGDEAMAAYYLAEMALSQGDPREALAHAKRAEGRIPKGSPQGLRLQDLIAEAERQKKRQEDRD” the protein production was “failed”.
For “MRLMIIFDLPVETSEERKEYRKFRKNLINEGFIMIQYSVYVRVCVNKKSAEFTEKRIESFLPSKGVVQSLILTEKQYNDMHFLLGKKIKEVRNSAERTIIL”, the protein production was “failed”.
In the case of “MRLSPAPLKLSRTPALLALALPLAAALAFSDETLDKVPKSEGYCSRILRAQGTRREGYTEFSLRVEGDPDFYKPGTSYRVTLSAAPPSYFRGFTLIALRENREGDKEEDHAGTFQIIDEEETQFMSNCPVAVTESTPRRRTRIQVFWIAPPAGTGCVILKASIVQKRIIYFQDEGSLTKKLCEQDSTFDGVTDKPILDCCACGTAKYRLTFYGNWSEKTHPKDYPRRANHWSAIIGGSHSKNYVLWEYGGYASEGVKQVAELGSPVKMEEEIRQQSDEVLTVIKAKAQWPAWQPLNVRAAPSAEFSVDRTRHLMSFLTMMGPSPDWNVGLSAEDLCTKECGWVQKVVQDLIPWDAGTDSGVTYESPNKPTIPQEKIRPLTSLDHPQSPFYDPEGGSITQVARVVIERIARKGEQCNIVPDNVDDIVADLAPEEKDEDDTPETCIYSNWSPWSACSSSTCDKGKRMRQRMLKAQLDLSVPCPDTQDFQPCMGPGCSDEDGSTCTMSEWITWSPCSISCGMGMRSRERYVKQFPEDGSVCTLPTEETEKCTVNEECSPSSCLMTEWGEWDECSATCGMGMKKRHRMIKMNPADGSMCKAETSQAEKCMMPECHTIPCLLSPWSEWSDCSVTCGKGMRTRQRMLKSLAELGDCNEDLEQVEKCMLPECPIDCELTEWSQWSECNKSCGKGHVIRTRMIQMEPQFGGAPCPETVQRKKCRIRKCLRNPSIQKLRWREARESRRSEQLKEESEGEQFPGCRMRPWTAWSECTKLCGGGIQERYMTVKKRFKSSQFTSCKDKKEIRACNVHPC”, the protein production is reported as “failed”.
In the case of “MRLVERHIVKTNHQFYKEIDDLAWRSKNLYNYVNYLVRQSFIFDGKYLNNAAIFHLVKHHESYTALPRKVSNQVLMVLHRNWKSFFETHKAYKQNPSKFKGCPKLPKYKNKEKGRNIVIYELGAISKPLLKQGVIKLSQTEIQFPTKASNIQQVRLIPQCGQYVVEVVYLQDATPQQLNPDWVAGIDIGLDNLAALTSNKPGFKPVLVNGRPLKAINQQYNKAKARLQSQLKGNAKTSRRIQALTCKRNNRIDNYLHNASRWIINHLASAGIGTLVIGKNDQWKQEINLGTTTNQNFVSIPHARFIEQLKYKAELVAMTVLINEESYTSASSFLDLDPIPVYQEGVKHSFSGKRIKRAWYQSANGRFIHADINASLNITRKVVPAAFSLGIAGIAVCPSRITPGKVAI”, the protein production is reported as “failed”.
For “MRLVQLSRHSIAFPSPEGALREPNGLLALGGDLSPARLLMAYQRGIFPWFSPGDPILWWSPDPRAVLWPESLHISRSMKRFHKRSPYRVTMNYAFGQVIEGCASDREEGTWITRGVVEAYHRLHELGHAHSIEVWREBELVGGMYGVAQGTLFCGESMFSRMENASKTALLVFCEEFIGHGGKLIDCQVLNDHTASLGACEIPRRNYLNYLNQMRLGRLPNNFWVPRCLFSPQE”, the protein production was “not failed”.
In the case of “MRLYERSSCLLQPPDYSLMNDSTDAQDVSQARVWLWAARPKTLGAAVAPVLVGTGMALEAGAWHLLSALLALAGAVLIQVGVNYHNDYADYVQGADTQERVGPLRVTQAGLVAPQTMRRATILVFGLAVMAGLYLIARGGWPILAVGVASIGAAIWYTAGRYSLAALGLADVFVFVFFGPVAVGGTYYVQALSLPTEVLLAGGGPGLLSIGILLVNNVRDVAEDRRAGKRTLVVRFGRRFGVAAYGACLVGALLLAGLLAAGLFGTTPHPWAALPLGLLPLAIGPIRRLSETTDPEKLNPLLGATGRILVLWALLFAVGWNL”, the protein production is reported as “failed”.
With “MRLYKIGLVLLLWVFAVTAQAELRFPALSGRVVDDAQMIEPTISALLTRQLQAHEQATGEQLVVVTLPDLQGASIEEFGYQLGRHWGIGQKDKNNGALLIVARDERKLRIEVGYGLEERLTDAQASVIINQVITPAFKTGQFSKGISDGVSAMLLVLGGTPLDEPTTVYDSGDSSSQDDFVQRHPLLFIFLVLLFILVIMVAQALGLITTTSGRGGGGGGGFGGFGGGSGGGGGFSGGGGSFGGGGSSGGWLEHHHHHH” the protein production was “failed”.
For “MRMGVKDFAPSWFASVMGTGALALVSKSYSFKLPILEAFSKFLTYLNTIIFFVLLIPWLLRWIKYPSEAKKDLYHPVTSHFYGTMPIAMTIVAVNLAMFGYKEIALPLWILGSILVVIFAFLIPYLFFISEGVDVKTITPAWFIPPVGLIVIPLTSLPFVPSSVMWREVFIVLNYFGFGAGFFIYLALFAIVMRRFITHELLPPIMAPAVWINLGPLGAGAVALLNLAKIMPIAKSAFKAFAFILWGFGLWWLIMAILMTLHYLKNLHLPYSLAWWAFIFPLGAYVSATYNVGISIGITAMIEFGFALYWFLLALWLVTGIKTLVHDFSS”, the protein production was “failed”.
With “MRMKPLKRSLPLLLALLLAACAGVKPPAAQPAQPETKPAAESGPDEAKLPKVALSPEILYGVLAGEIAARRGAAGSAGLTYLDLARETRDPRMAQRAAEFCLLSGQLKPATEALQLWIELDPESLPAREQLFITLMRGGKLAESKPLIEELLRLEPQRAPAIFVQLARLSARQDGGSAPSYRLVQELADRYPDLPEARFAVLAAAADNNDQAAVDRELNRLAGIAPKWDLPVAWQVDRLRRKDINEAADFLQRELARRPDAGLELQIAYPRLLVGAKRFPEARSAFEALLKTHPDNPDLLYATGLLAYQMRDLKTADDRLQRALARQYPEQDFVRYTLGQIAEDDRDAERAGNWYRQVGPGQQYLPAQSRLAMLEAADGRLDEALSRLSGLGGTDQEKVSLALLQSQLAREAKQPRRAYDLLTQALQRQPRSSELLYERSLVSDMLGNAGNAERDLRLILKDKPGDAQALNALGYTLANRTSRYQEAYGYIEKALKAEPDNPVIQDSMGWVQYKLGRLDAARKALEKAYAAMQDPEVGAHLGEVLWKQGRRDEALAVWRKELAQHPGHEVIAETMRRLGAKP” the protein production was “failed”.
In the case of “MRNDRSFIELRARERAHALLDDGSYRELLDPFEGIMSPWLGAQGIVPQSDDGMVVAKGTINGQPAVVIAIEGTFQGGSMGEVSGAKMAAALELAAEDNRNGIPTQAVLCLETGGVRLQEANLGLAAIADIHAAIVDLRRYTPVVGIITGTVGCFGGMSIAAALCSYLIVTREARLGLNGPQVIEQEAGIEEYDSRNRPFIWSMTGGEIRAASGLVDALVNDGVNAVKTAMIEAIAKGVPAQHRSDNYDDYLRRLSQFDTRQQADTAQIKQLFAREDK”, the protein production is reported as “not failed”.
